Results as given in patent publication US20190367615A1 (BEIJING HANMI PHARM, published 2019).

Columns and labels:
[1] = biological target: T1, Recombinant human PD-1 (Sino Biological Inc., Catalog Number 10377-H08H) (human, UniProt Q15116 25-167); assay: ELISA, coated recombinant human PD-1 (1 ug/mL), detection with anti-human IgG-HRP, OD450nm
T1 construct: Bought protein; also called antigen PD-1
Protocol: (§1) Recombinant human PD-1 (purchased from Sino Biological Inc.) was coated on a 96-well high-absorbing ELISA plate with a carbonate buffer solution with pH 9.6, the coating concentration was 1 μg/mL, the coating amount was 100 μL per well, and the coating was carried out at 4° C. overnight. The plate was washed five times with PBST and blocked with 300 μL/well of PBST containing 1% BSA, and then incubated at 25° C. for 1 hour. The plate was washed five times with PBST. […] The plate was washed five times with PBST. Then, horseradish peroxidase-labeled anti-human IgG antibody (Chemicon, Catalog Number AP309P) 1:2000 diluted in PBST containing 1% BSA was added, 100 μL per well, incubated at 25° C. for 1 hour. The plate was washed five times with PBST. 100 μL/well of colorimetric substrate TMB was added and incubated at room temperature for 10 minutes. Color development was terminated by adding 100 μL/well of 1 M H₂SO₄. The absorbance at 450 nm was read on a microplate reader.

[2] = biological target: T2, Recombinant human PD-L2 (Sino Biological Inc.) (human, UniProt Q9BQ51 20-220); assay: binding specificity ELISA, coated recombinant human PD-L2, anti-human IgG-HRP
T2 sequence (looked up): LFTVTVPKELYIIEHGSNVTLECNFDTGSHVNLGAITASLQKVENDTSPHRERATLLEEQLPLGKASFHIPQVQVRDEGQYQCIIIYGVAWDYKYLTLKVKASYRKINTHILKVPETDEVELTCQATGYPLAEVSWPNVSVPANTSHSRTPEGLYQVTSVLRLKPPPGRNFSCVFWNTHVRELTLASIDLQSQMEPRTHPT
Protocol: as §1, with “The” for “Recombinant human PD-1 (purchased from Sino Biological Inc.) was coated on a 96-well high-absorbing ELISA plate with a carbonate buffer solution with pH 9.6, the coating concentration was 1 μg/mL, the coating amount was 100 μL per well, and the coating was carried out at 4° C. overnight. The”, “1% BSA” for “1% BSA,”, “and” for “and then”, “μL was added to each” for “μL per”

[3] = biological target: T3, Recombinant human BTLA (Sino Biological Inc.) (human, UniProt Q7Z6A9 31-157, limits assumed); assay: binding specificity ELISA, coated recombinant human BTLA, anti-human IgG-HRP
T3 sequence (looked up): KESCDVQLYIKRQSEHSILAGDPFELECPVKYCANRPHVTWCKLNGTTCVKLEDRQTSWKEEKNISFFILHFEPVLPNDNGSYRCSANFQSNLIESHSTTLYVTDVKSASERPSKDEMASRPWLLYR
Protocol: as §1, with “The” for “Recombinant human PD-1 (purchased from Sino Biological Inc.) was coated on a 96-well high-absorbing ELISA plate with a carbonate buffer solution with pH 9.6, the coating concentration was 1 μg/mL, the coating amount was 100 μL per well, and the coating was carried out at 4° C. overnight. The”, “1% BSA” for “1% BSA,”, “and” for “and then”, “μL was added to each” for “μL per”

[4] = biological target: T4, Recombinant human PD-1-Fc (human, UniProt Q15116 25-167, limits assumed); assay: competition ELISA, PD-1-Fc coated, competitor biotin-labeled PD-L1
T4 construct: also called recombinant human PD-1-Fc protein; not shown: Fc part
Protocol: (§2) Recombinant human PD-1-Fc was coated on a 96-well high-absorbing ELISA plate with a carbonate buffer solution with pH 9.6, the coating concentration was 1 μg/mL, the coating amount was 100 μL per well, and the coating was carried at 4° C. out overnight. The plate was washed five times with PBST and blocked with 300 μL/well of PBST containing 1% BSA and incubated at 25° C. for 1 hour. The plate was washed five times with PBST. The positive control and the anti-human PD-1 antibody sample were added, 50 μL per well. […] The plate was washed five times with PBST. Then, Streptavidin-HRP (BD Pharmingen, Catalog Number 554066) 1:1000 diluted in PBST containing 1% BSA was added, 100 μL per well, incubated at 25° C. for 1 hour. The plate was washed five times with PBST. 100 μL/well of colorimetric substrate TMB was added and incubated at room temperature for 10 minutes. Color development was terminated by adding 100 μL/well of 1 M H₂SO₄. The absorbance at 450 nm was read on a microplate reader.

[5] = biological target: Recombinant human CD28 (Sino Biological Inc.) (human, UniProt P10747 19-152); assay: binding specificity ELISA, coated recombinant human CD28, anti-human IgG-HRP
Protocol: as §1, with “The” for “Recombinant human PD-1 (purchased from Sino Biological Inc.) was coated on a 96-well high-absorbing ELISA plate with a carbonate buffer solution with pH 9.6, the coating concentration was 1 μg/mL, the coating amount was 100 μL per well, and the coating was carried out at 4° C. overnight. The”, “1% BSA” for “1% BSA,”, “and” for “and then”, “μL was added to each” for “μL per”

[6] = biological target: T4, Recombinant human PD-1-Fc; assay: competition ELISA, coated human PD-1-Fc, blocked ligand biotin-labeled PD-L1 (final 10 nM), streptavidin-HRP, OD450nm [panel PD-1/PD-L1 Blocking Activity]
Protocol: as §2

[7] = biological target: T5, Recombinant human CD86 (Sino Biological Inc.) (human, UniProt P42081 24-247, limits assumed); assay: binding specificity ELISA, coated recombinant human CD86, anti-human IgG-HRP
T5 sequence (looked up): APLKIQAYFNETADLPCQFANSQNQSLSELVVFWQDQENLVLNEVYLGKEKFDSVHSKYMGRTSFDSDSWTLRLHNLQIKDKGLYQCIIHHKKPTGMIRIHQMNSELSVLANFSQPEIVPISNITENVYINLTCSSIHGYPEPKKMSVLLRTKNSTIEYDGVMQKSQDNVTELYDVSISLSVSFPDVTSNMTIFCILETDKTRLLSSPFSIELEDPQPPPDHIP
Protocol: as §1, with “The” for “Recombinant human PD-1 (purchased from Sino Biological Inc.) was coated on a 96-well high-absorbing ELISA plate with a carbonate buffer solution with pH 9.6, the coating concentration was 1 μg/mL, the coating amount was 100 μL per well, and the coating was carried out at 4° C. overnight. The”, “1% BSA” for “1% BSA,”, “and” for “and then”, “μL was added to each” for “μL per”

[8] = biological target: T1, Recombinant human PD-1 (Sino Biological …); assay: ELISA, human PD-1 coated
Protocol: as §1

[9] = biological target: Recombinant human PD-L1 (Sino Biological Inc.) (human, UniProt Q9NZQ7 19-239); assay: binding specificity ELISA, coated recombinant human PD-L1, anti-human IgG-HRP
Protocol: as §1, with “The” for “Recombinant human PD-1 (purchased from Sino Biological Inc.) was coated on a 96-well high-absorbing ELISA plate with a carbonate buffer solution with pH 9.6, the coating concentration was 1 μg/mL, the coating amount was 100 μL per well, and the coating was carried out at 4° C. overnight. The”, “1% BSA” for “1% BSA,”, “and” for “and then”, “μL was added to each” for “μL per”

T4 sequence (Q15116 25-167 limits assumed): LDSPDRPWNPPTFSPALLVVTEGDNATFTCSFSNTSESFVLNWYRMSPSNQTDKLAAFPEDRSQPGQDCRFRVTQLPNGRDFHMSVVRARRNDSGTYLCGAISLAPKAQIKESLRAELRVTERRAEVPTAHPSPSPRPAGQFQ
T1 sequence (Q15116 25-167 limits assumed): as above
Chain of Recombinant human PD-L1 (Sino Biological Inc.) (Q9NZQ7 19-239 limits assumed): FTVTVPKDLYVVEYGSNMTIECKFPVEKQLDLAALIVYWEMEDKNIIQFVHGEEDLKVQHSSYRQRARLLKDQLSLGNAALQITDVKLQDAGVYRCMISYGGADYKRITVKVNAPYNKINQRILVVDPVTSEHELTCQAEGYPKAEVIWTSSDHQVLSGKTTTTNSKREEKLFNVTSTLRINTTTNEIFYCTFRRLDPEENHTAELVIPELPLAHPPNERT
Chain of Recombinant human CD28 (Sino Biological Inc.) (P10747 19-152 limits assumed): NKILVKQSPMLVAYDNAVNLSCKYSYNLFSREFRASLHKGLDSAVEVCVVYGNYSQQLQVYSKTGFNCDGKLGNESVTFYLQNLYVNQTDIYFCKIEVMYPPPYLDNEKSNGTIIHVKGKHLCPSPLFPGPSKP

B1: anti-human PD-1 chimeric monoclonal antibody (antibody, human IgG4 S228P, kappa, V domains shown)
VH: EVQLQESGGGLVKPGGSLKLSCAASGFTFSSYGMSWVRQTPEKRLEWVASISGGGRYTYYPDSMKGRFTISRDNAKNNLHLQMSSLRSEDTALYYCVYEYFYTMDYWGQGTSVTVSS
VL: DIVLTQSPATLSVTPGDSVSLSCRANQSISNNLHWYQQRSHESPRLLIRFASQSISGIPSRFSGSGSGTDFTLSINSVETEDFGMYFCQQSDNWPLTFGAGTKLEIKR
notes: expressed in 293F cells; also called Anti-human PD-1 Chimeric Antibody; chimeric anti-human PD-1 monoclonal antibody
[1]
  EC50: 92 pM
[2]
  binding result: no binding
[3]
  binding result: no binding
[4]
  IC50: 1450 pM
[5]
  binding result: no binding
[6]
  IC50: 972 pM
[7]
  binding result: no binding
[8]
  EC50: 31 pM
[9]
  binding result: no binding
